Experimental data taken from patent US20140213531A1 (POLYPHOR, published 2014).
Bridges are numbered along the chain shown (N, C = ends). Primed or numbered codes have the meaning given here. [ ]: non-standard residue; d: D form. Pro(4NHCOPhe)″ = 4-benzamido-L-proline, (2S)-4-benzoylamino-pyrrolidine-2-carboxylic acid; Gly(octyl) = CCCCCCCC[C@H](N)C(=O)O; Pro(4NHCOPhe) = not defined here; Cha = N[C@@H](CC1CCCCC1)C(=O)O; Nle = CCCC[C@H](N)C(=O)O

T1: Chymase, from human skin (human, UniProt P23946 22-247)
T1 construct: purified natural enzyme, bought
T1 sequence (looked up): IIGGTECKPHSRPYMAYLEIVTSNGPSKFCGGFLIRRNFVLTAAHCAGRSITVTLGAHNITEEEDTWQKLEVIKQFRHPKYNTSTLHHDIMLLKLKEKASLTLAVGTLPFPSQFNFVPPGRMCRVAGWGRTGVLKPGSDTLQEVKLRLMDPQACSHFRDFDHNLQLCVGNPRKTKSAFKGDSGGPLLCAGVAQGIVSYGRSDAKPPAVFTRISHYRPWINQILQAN

T2: CathepsinG, from human neutrophils (human, UniProt P08311 21-244)
T2 construct: purified natural enzyme, bought
T2 sequence (looked up): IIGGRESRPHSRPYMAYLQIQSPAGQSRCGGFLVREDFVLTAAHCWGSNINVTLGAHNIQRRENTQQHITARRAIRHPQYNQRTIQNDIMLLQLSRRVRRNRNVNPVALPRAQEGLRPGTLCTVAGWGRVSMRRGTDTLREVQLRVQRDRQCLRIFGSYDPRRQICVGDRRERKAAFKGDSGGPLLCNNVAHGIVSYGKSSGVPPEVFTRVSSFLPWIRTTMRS


What was measured:
Test in all cases: enzyme inhibition, pNA substrate
[1] = target: Thrombin, from Human Plasma, high activity (human, UniProt P00734 328-622)
[2] = target: T3, Trypsin, Iodination grade, from human pancreas (human, UniProt P07477 24-247)
T3 construct: purified natural enzyme, bought

[3] = target: T1, Chymase, from human skin
[4] = target: T4, Tryptase, from human lung (human, UniProt Q15661 31-275, limits assumed)
T4 construct: purified natural enzyme, bought
T4 sequence (Q15661 31-275 limits assumed): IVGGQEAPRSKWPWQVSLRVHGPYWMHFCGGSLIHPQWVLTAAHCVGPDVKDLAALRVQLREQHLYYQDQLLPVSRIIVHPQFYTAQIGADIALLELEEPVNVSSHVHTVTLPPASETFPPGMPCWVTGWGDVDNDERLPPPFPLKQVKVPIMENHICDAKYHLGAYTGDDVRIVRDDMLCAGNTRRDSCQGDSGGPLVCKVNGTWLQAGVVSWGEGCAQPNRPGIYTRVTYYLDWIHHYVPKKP

[5] = target: T5, Urokinase from human urine (human, UniProt P00749 21-431, limits assumed)
T5 construct: purified natural enzyme, bought

[6] = target: T6, Coagulation Factor Xa, from uman plasma (human, UniProt P00742 41-179; P00742 235-488, limits assumed)
T6 construct: purified natural enzyme, bought; also called FXa
T6 sequence (P00742 41-179 limits assumed, chain 1 of 2): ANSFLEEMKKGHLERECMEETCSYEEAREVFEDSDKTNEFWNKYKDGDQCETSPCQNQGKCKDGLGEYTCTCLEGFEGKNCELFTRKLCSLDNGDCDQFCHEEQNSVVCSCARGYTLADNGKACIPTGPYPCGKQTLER
T6 sequence (P00742 235-488 limits assumed, chain 2 of 2): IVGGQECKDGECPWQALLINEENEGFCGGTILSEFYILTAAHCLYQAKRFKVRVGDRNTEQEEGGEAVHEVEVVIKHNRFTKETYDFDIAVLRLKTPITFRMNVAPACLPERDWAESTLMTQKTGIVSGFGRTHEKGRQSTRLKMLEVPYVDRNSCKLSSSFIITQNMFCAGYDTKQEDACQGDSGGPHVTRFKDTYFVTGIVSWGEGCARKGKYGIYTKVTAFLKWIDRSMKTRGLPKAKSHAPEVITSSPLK

[7] = target: T2, CathepsinG, from human neutrophils
[8] = target: T7, Chymotrypsin, from human pancreas (human, UniProt P17538 19-263)
T7 construct: purified natural enzyme, bought
T7 sequence (P17538 19-263): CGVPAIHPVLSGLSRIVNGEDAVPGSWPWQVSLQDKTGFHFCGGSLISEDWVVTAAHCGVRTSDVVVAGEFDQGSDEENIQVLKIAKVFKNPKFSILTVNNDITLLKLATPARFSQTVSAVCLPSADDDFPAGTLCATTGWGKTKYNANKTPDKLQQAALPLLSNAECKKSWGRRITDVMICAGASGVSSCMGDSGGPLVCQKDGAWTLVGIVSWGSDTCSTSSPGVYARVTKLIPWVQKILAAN

% inhibition at 100 µM [1] [%]	% inhibition at 100 µM [2] [%]	% inhibition at 100 µM [3] [%]	% inhibition at 100 µM [4] [%]	% inhibition at 100 µM [5] [%]	% inhibition at 100 µM [6] [%]	% inhibition at 100 µM [7] [%]	% inhibition at 100 µM [8] [%]	Binder
0	30.5	0	0	17.4	0	–	–	XCTASIPPQCY (HELM PEPTIDE1{[CCCCCC[C@H](N[*:1])C(=O)[*:2]].C.T.A.S.I.P.P.Q.C.Y.[dP].P}$PEPTIDE1,PEPTIDE1,2:R3-10:R3|PEPTIDE1,PEPTIDE1,1:R1-13:R2$$$V2.0; SMILES CCCCCC[C@@H]1NC(=O)[C@@H]2CCCN2C(=O)[C@H]2CCCN2C(=O)[C@H](Cc2ccc(O)cc2)NC(=O)[C@@H]2CSSC[C@H](NC1=O)C(=O)N[C@@H]([C@@H](C)O)C(=O)N[C@@H](C)C(=O)N[C@@H](CO)C(=O)N[C@@H]([C@@H](C)CC)C(=O)N1CCC[C@H]1C(=O)N1CCC[C@H]1C(=O)N[C@@H](CCC(N)=O)C(=O)N2, also called Ex. 99) [Example 99]
10.7	0	0	0	–	24.8	47	–	cyclo([Nle]CAASIPPQCY[dP]P) (disulfide 2-10, also called Ex. 86) [Example 86]
13.5	0	–	–	–	19.4	45	–	XCTASIPPQCQ (HELM PEPTIDE1{[Nle].C.T.A.S.I.P.P.Q.C.Q.[dP].P}$PEPTIDE1,PEPTIDE1,2:R3-10:R3|PEPTIDE1,PEPTIDE1,1:R1-13:R2$$$V2.0; SMILES CCCC[C@@H]1NC(=O)[C@@H]2CCCN2C(=O)[C@H]2CCCN2C(=O)[C@H](CCC(N)=O)NC(=O)[C@@H]2CSSC[C@H](NC1=O)C(=O)N[C@@H]([C@@H](C)O)C(=O)N[C@@H](C)C(=O)N[C@@H](CO)C(=O)N[C@@H]([C@@H](C)CC)C(=O)N1CCC[C@H]1C(=O)N1CCC[C@H]1C(=O)N[C@@H](CCC(N)=O)C(=O)N2, also called Ex. 91) [Example 91]
11	–	0	22	0	–	–	87	XCTASIPPQCF (HELM PEPTIDE1{[O=C([C@H](CCc1ccccc1)N[*:1])[*:2]].C.T.A.S.I.P.P.Q.C.F.[dP].P}$PEPTIDE1,PEPTIDE1,2:R3-10:R3|PEPTIDE1,PEPTIDE1,1:R1-13:R2$$$V2.0; SMILES CC[C@H](C)[C@@H]1NC(=O)[C@H](CO)NC(=O)[C@H](C)NC(=O)[C@H]([C@@H](C)O)NC(=O)[C@@H]2CSSC[C@H](NC(=O)[C@H](CCC(N)=O)NC(=O)[C@@H]3CCCN3C(=O)[C@@H]3CCCN3C1=O)C(=O)N[C@@H](Cc1ccccc1)C(=O)N1CCC[C@@H]1C(=O)N1CCC[C@H]1C(=O)N[C@@H](CCc1ccccc1)C(=O)N2) [Example 146]
17.1	12.2	–	0	14.4	12.6	–	77.1	cyclo([Nle]CTASIP[Pro(4NHCOPhe)″]QCY[dP]P) (disulfide 2-10) [Example 138]
15	–	–	17	–	–	69	55	cyclo([Nle]CTAS[Cha]P[Pro(4NHCOPhe)]QCQ[dQ]Q) (disulfide 2-10; reading uncertain, also called Ex. 176) [Example 176]
–	0	0	0	0	0	–	67.9	XCTASIPPQCX (HELM PEPTIDE1{[Nle].C.T.A.S.I.P.P.Q.C.[Phg].[dP].P}$PEPTIDE1,PEPTIDE1,2:R3-10:R3|PEPTIDE1,PEPTIDE1,1:R1-13:R2$$$V2.0; SMILES CCCC[C@@H]1NC(=O)[C@@H]2CCCN2C(=O)[C@H]2CCCN2C(=O)[C@H](c2ccccc2)NC(=O)[C@@H]2CSSC[C@H](NC1=O)C(=O)N[C@@H]([C@@H](C)O)C(=O)N[C@@H](C)C(=O)N[C@@H](CO)C(=O)N[C@@H]([C@@H](C)CC)C(=O)N1CCC[C@H]1C(=O)N1CCC[C@H]1C(=O)N[C@@H](CCC(N)=O)C(=O)N2, also called Ex. 136) [Example 136]
20.6	10.8	0	–	10.4	13.3	–	79.6	XCTASXPPQCY (HELM PEPTIDE1{[Nle].C.T.A.S.[O=C([C@@H](N[*:1])C1CCCCC1)[*:2]].P.P.Q.C.Y.[dP].P}$PEPTIDE1,PEPTIDE1,2:R3-10:R3|PEPTIDE1,PEPTIDE1,1:R1-13:R2$$$V2.0; SMILES CCCC[C@@H]1NC(=O)[C@@H]2CCCN2C(=O)[C@H]2CCCN2C(=O)[C@H](Cc2ccc(O)cc2)NC(=O)[C@@H]2CSSC[C@H](NC1=O)C(=O)N[C@@H]([C@@H](C)O)C(=O)N[C@@H](C)C(=O)N[C@@H](CO)C(=O)N[C@@H](C1CCCCC1)C(=O)N1CCC[C@H]1C(=O)N1CCC[C@H]1C(=O)N[C@@H](CCC(N)=O)C(=O)N2, also called Ex. 140) [Example 140]
0	19	–	–	11.1	19.6	–	60.2	XCTASIPPQCY (HELM PEPTIDE1{[Nle].C.T.A.S.I.P.P.Q.C.Y.[dP].F}$PEPTIDE1,PEPTIDE1,2:R3-10:R3|PEPTIDE1,PEPTIDE1,1:R1-13:R2$$$V2.0; SMILES CCCC[C@@H]1NC(=O)[C@H](Cc2ccccc2)NC(=O)[C@H]2CCCN2C(=O)[C@H](Cc2ccc(O)cc2)NC(=O)[C@@H]2CSSC[C@H](NC1=O)C(=O)N[C@@H]([C@@H](C)O)C(=O)N[C@@H](C)C(=O)N[C@@H](CO)C(=O)N[C@@H]([C@@H](C)CC)C(=O)N1CCC[C@H]1C(=O)N1CCC[C@H]1C(=O)N[C@@H](CCC(N)=O)C(=O)N2, also called Ex. 167) [Example 167]
–	0	0	15	–	0	27	–	XQTASIPPQTY (HELM PEPTIDE1{[CCCCCCCC[C@H](N[*:1])C(=O)[*:2]].Q.T.A.S.I.P.P.Q.T.Y.[dP].P}$PEPTIDE1,PEPTIDE1,1:R1-13:R2$$$V2.0; SMILES CCCCCCCC[C@@H]1NC(=O)[C@@H]2CCCN2C(=O)[C@H]2CCCN2C(=O)[C@H](Cc2ccc(O)cc2)NC(=O)[C@H]([C@@H](C)O)NC(=O)[C@H](CCC(N)=O)NC(=O)[C@@H]2CCCN2C(=O)[C@@H]2CCCN2C(=O)[C@H]([C@@H](C)CC)NC(=O)[C@H](CO)NC(=O)[C@H](C)NC(=O)[C@H]([C@@H](C)O)NC(=O)[C@H](CCC(N)=O)NC1=O) [Example 154]
17	0	0	15	–	0	46	–	cyclo([Gly(octyl)]ETASIPPQKY[dP]P) (also called Ex. 156) [Example 156]
20.6	10.8	0	–	10.4	13.3	–	79.6	XCTASXPPQCY (HELM PEPTIDE1{[Nle].C.T.A.S.[CCCCCCCC[C@H](N[*:1])C(=O)[*:2]].P.P.Q.C.Y.[dP].Q}$PEPTIDE1,PEPTIDE1,2:R3-10:R3|PEPTIDE1,PEPTIDE1,1:R1-13:R2$$$V2.0; SMILES CCCCCCCC[C@@H]1NC(=O)[C@H](CO)NC(=O)[C@H](C)NC(=O)[C@H]([C@@H](C)O)NC(=O)[C@@H]2CSSC[C@H](NC(=O)[C@H](CCC(N)=O)NC(=O)[C@@H]3CCCN3C(=O)[C@@H]3CCCN3C1=O)C(=O)N[C@@H](Cc1ccc(O)cc1)C(=O)N1CCC[C@@H]1C(=O)N[C@@H](CCC(N)=O)C(=O)N[C@@H](CCCC)C(=O)N2, also called Ex. 169) [Example 169]
